Laboratory results as given in US20220380801A1, “TRIPARTITE SYSTEMS FOR PROTEIN DIMERIZATION AND METHODS OF USE” (priority 2019, published 2022).

Molecular target: DBD-FKBP12 (three tandem copies) (UniProt P62942)
Assay: cell-based or functional assay

Chain of DBD-FKBP12 (three tandem copies) (P62942 other isoform, or with tags, fused parts or gaps limits assumed): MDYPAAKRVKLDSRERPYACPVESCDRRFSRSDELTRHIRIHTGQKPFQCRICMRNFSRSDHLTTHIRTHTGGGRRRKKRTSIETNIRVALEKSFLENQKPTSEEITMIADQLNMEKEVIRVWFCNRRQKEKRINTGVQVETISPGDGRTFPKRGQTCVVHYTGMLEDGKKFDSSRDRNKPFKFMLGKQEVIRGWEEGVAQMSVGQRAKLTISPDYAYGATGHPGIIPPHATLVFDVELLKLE

Work on FRB-AD (from UniProt P42345 2021-2113) yielded a fold increase of luciferase expression, split transcription factor, rapalog of 30 fold.
